The source of these data is US20070087000A1 (Pfizer, published 2007).

The target in test [1] is T1, Human GDF-8 (mature, recombinant dimer), biotinylated in the ELISAs (human, UniProt O14793 267-375, biotinylated in the direct and competition ELISAs (sites not given)).
T1 construct: It was not biotinylated in the reporter assay; also called myostatin; growth and differentiation factor-8
The test can be described thus: competition ELISA: RK35 inhibits binding of biotinylated GDF-8 to immobilized ActRIIB-Fc; competition ELISA, biotinylated GDF-8 to immobilized ActRIIB-Fc. In general terms: ELISA stands for enzyme-linked immunosorbent assay.

The target of test [2] is T1, Human GDF-8 (mature, recombinant …). Put plainly: competition ELISA: soluble ActRIIB-Fc as competitor of biotinylated GDF-8 binding to immobilized ActRIIB-Fc.

B1: RK35 anti-GDF-8 mouse monoclonal antibody (antibody, V domains shown)
VH: EVQLVESGGGLVKPGGSLKLSCAASGFTFSSYAMSWVRQTPEKRLEWVATISSGGSYTSYPDSVKGRFTISRDNAKNTLYLQMSSLRSEDTAMYYCARQDYAMNYWGQGTSVTVSS
VL: DIEMTQSHKFMSTSVGDRVSITCKASQDVSTAVAWYQQKPGQSPKLLLYSASYRYTGVPDRFTGSGSGTDFTFTISSVQAEDLAVYYCQQHYSTPWTFGGGTKLEIK
notes: Murine monoclonal antibody from a hybridoma (myostatin knockout BALB/c mice immunised with recombinant GDF-8 dimer); also called RK35 mAb; murine RK35
Regarding B1, the IC50 (commonly the concentration that inhibits the measured activity by half) in test [1] was approximately 2.5 nM.

B2: Recombinant ActRIIB-Fc chimera (human ActRIIB fused to the human IgG constant region, Fc) (Fc fusion, UniProt Q13705 19-137, looked up)
chain: SGRGEAETRECIYYNANWELERTNQSGLERCEGEQDKRLHCYASWRNSSGTIELVKKGCWLDDFNCYDRQECVATEENPQVYFCCCEGNFCNERFTHLPEAGGPEVTYEPPPTAPTLLT
notes: extracellular domain; The same protein was used immobilised and as the soluble positive control; also called soluble ActRIIB; soluble ActRIIB-Fc receptor; not shown: human IgG1 Fc region
Turning to B2, the “IC50 (read off the curve)” value in test [2] was approximately 300 pM.
